# Measured values published in patent US7811578B2, “Soluble chimeric peptide inhibitors of HIV entry comprising an IZ trimeric coiled-coil peptide and HIV gp41 N-helix coiled-coil peptide” (Whitehead Institute for Biomedical Research, dated 2010).
# B1: IQ15N17 (designed binder)
# chain: Ac-KQKKIENEIARIKKLLQLTVWGIKQLQARIL-NH2
# B2: IZN17 (designed binder)
# chain: Ac-IKKEIEAIKKEQEAIKKKIEAIEKLLQLTVWGIKQLQARIL-NH2
# B3: IQN23 version 2 (designed binder)
# chain: Ac-RMKQIEDKIEEIESKQKKIENEIARIKKLIEAQQHLLQLTVWGIKQLQARIL-NH2
# B4: IQ22N17 (designed binder)
# chain: Ac-KIEEIESKQKKIENEIARIKKLLQLTVWGIKQLQARIL-NH2
# B5: II15N17 (designed binder)
# chain: Ac-KIKKIENEIARIKKLLQLTVWGIKQLQARIL-NH2
# B6: IQN17 (designed binder)
# chain: Ac-RMKQIEDKIEEIESKQKKIENEIARIKKLLQLTVWGIKQLQARIL-NH2
# B7: N17 (peptide)
# peptide: Ac-LLQLTVWGIKQLQARIL-NH2
# B8: II22N17 (designed binder)
# chain: Ac-KIEEIESKIKKIENEIARIKKLLQLTVWGIKQLQARIL-NH2
# What was measured:
# [1] = molecular target: HIV gp41 on HIV modified to contain a luciferase reporter gene (HIV, strain not stated)
# [2] = molecular target: gp160 (precursor protein to gp120/gp41) on CHO cells (HIV, strain not stated)
# [3] = molecular target: HIV-1 HXB2 gp41 (from the HXB2 gp160 gene), on single-round luciferase virus (HIV-1 (HXB2)) (UniProt P04578)
# [4] = molecular target: HIV-1 HXB2 gp41 (from the HXB2 gp160 gene), on single-round luciferase virus (HIV-1 (HXB2), UniProt P04578); experiment: cell-based or functional assay
Molecule,"IC50 (nm), viral infectivity (HIV luciferase assay) [4] [nM]",other results
GCN4-pIQI (peptide),–,inhibition of luciferase activity (viral fusion experiment) [1]: > 10 µM
IQN17 (designed binder),–,"IC50, inhibition of luciferase activity (viral fusion experiment) [1]: 250 nM; IC50, inhibition of syncytia formation (cell/cell fusion, β-galactosidase) [2]: 20 to 80 nM"
IQN17 (G572D) (designed binder),–,"IC50 (nm), viral infectivity (HIV luciferase assay) [3]: 20000 nM"
B1,~10000,–
B2,5.6,–
B3,~30,–
B4,~1000,–
B5,~3000,–
B6,~180,–
B7,~10000,–
B8,~170,–
